Experimental data: patent publication US5686583, “Specific antibodies against activated platelets, the preparation thereof and the use thereof in diagnosis and therapy” (Behringwerke Aktiengesellschaft, dated 1997)

Experiments:
[1] = target: human thrombospondin (TSP) (human, UniProt P07996); assay: Western blot
[2] = target: v. Willebrand factor (Homo sapiens (Human), UniProt P04275); assay: Western blot
[3] = target: gP 140 (Homo sapiens (Human), UniProt P16109); assay: Western blot
[4] = target: fibronectin (Homo sapiens (Human), UniProt P02751-8); assay: immunoprecipitation and Western blotting
[5] = target: fibrinogen (Homo sapiens (Human), UniProt P02671-2); assay: immunoprecipitation and Western blotting
[6] = target: platelet antigen recognized by MAb BW 2128 (human); assay: reaction with platelets; method not further stated

B1: MAb BW 2128 (antibody, V domains shown)
VH: LQQSGAELVKPGASVTLSCKASGYTFTSYWMHWVKQRPGQGLEWIGEINPSNGRTNYNEKFKSKATLTVDKSSSTAYMHLSSLTSDDSAVYYCARGAGAGGYWGQGTTVTVSS
VL: QLTQSPAIMSASPGEKVTMTCSASSSVTYMHWCQQKSGTSPKRWIYDTSKLASGVPARFSGSGSGTSYSLTISSMEAEDAATYYCQQWNSNPLTFGAGTKLEI
B1: no binding [1]; no binding [2]; no binding [3]. The binding result [4] was “no binding”, the binding result [5] was “no binding” and the fold stronger reaction with thrombin-activated than with non-activated platelets [6] was greater than 10 ×.
